According to IntAct's records for PubMed 25910212:

B1: Vitamin D3 receptor (Homo sapiens), P11473 (parent)
chain: MEAMAASTSLPDPGDFDRNVPRICGVCGDRATGFHFNAMTCEGCKGFFRRSMKRKALFTCPFNGDCRITKDNRRHCQACRLKRCVDIGMMKEFILTDEEVQRKREMILKRKEEEALKDSLRPKLSEEQQRIIAILLDAHHKTYDPTYSDFCQFRPPVRVNDGGGSHPSRPNSRHTPSFSGDSSSSCSDHCITSSDMMDSSSFSNLDLSEEDSDDPSVTLELSQLSMLPHLADLVSYSIQKVIGFAKMIPGFRDLTSEDQIVLLKSSAIEVIMLRSNESFTMDDMSWTCGNQDYKYRVSDVTKAGHSLELIEPLIKFQVGLKKLNLHEEEHVLLMAICIVSPDRPGVQDAALIEAIQDRLSNTLQTYIRCRHPPPGSHLLYAKMIQKLADLRSLNEEHSKQYRCLSFQPECSMKLTPLVLEVFGNEIS
partner: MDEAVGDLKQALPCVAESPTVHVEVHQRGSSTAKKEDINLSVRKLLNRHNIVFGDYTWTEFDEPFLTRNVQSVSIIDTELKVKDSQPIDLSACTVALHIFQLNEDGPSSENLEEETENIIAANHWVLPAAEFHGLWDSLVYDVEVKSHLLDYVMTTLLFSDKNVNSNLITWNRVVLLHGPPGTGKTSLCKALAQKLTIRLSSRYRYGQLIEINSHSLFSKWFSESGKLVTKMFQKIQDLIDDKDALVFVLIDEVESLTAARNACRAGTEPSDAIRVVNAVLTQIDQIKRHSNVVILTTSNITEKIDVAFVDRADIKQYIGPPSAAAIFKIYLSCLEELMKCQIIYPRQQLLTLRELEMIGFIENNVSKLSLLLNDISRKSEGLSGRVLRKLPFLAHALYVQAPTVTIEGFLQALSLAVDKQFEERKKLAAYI
B2: Interferon-inducible double-stranded RNA-dependent protein kinase activator A (Homo sapiens), O75569 (parent)
chain: MSQSRHRAEAPPLEREDSGTFSLGKMITAKPGKTPIQVLHEYGMKTKNIPVYECERSDVQIHVPTFTFRVTVGDITCTGEGTSKKLAKHRAAEAAINILKANASICFAVPDPLMPDPSKQPKNQLNPIGSLQELAIHHGWRLPEYTLSQEGGPAHKREYTTICRLESFMETGKGASKKQAKRNAAEKFLAKFSNISPENHISLTNVVGHSLGCTWHSLRNSPGEKINLLKRSLLSIPNTDYIQLLSEIAKEQGFNITYLDIDELSANGQYQCLAELSTSPITVCHGSGISCGNAQSDAAHNALQYLKIIAERK
partner: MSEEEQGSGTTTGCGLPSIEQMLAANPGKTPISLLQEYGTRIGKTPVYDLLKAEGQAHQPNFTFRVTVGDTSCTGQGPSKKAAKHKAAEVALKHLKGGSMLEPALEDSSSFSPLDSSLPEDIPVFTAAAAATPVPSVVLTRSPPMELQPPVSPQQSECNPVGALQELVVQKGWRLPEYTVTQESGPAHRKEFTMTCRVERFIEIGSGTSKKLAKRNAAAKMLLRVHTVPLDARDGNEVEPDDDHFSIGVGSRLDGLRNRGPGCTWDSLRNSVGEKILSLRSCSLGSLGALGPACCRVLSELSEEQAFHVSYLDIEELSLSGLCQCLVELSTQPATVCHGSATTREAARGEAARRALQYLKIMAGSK
B3: PiggyBac transposable element-derived protein 1 (Homo sapiens), Q96JS3 (parent)
chain: MYEALPGPAPENEDGLVKVKEEDPTWEQVCNSQEGSSHTQEICRLRFRHFCYQEAHGPQEALAQLRELCHQWLRPEMHTKEQIMELLVLEQFLTILPKELQPCVKTYPLESGEEAVTVLENLETGSGDTGQQASVYIQGQDMHPMVAEYQGVSLECQSLQLLPGITTLKCEPPQRPQGNPQEVSGPVPHGSAHLQEKNPRDKAVVPVFNPVRSQTLVKTEEETAQAVAAEKWSHLSLTRRNLCGNSAQETVMSLSPMTEEIVTKDRLFKAKQETSEEMEQSGEASGKPNRECAPQIPCSTPIATERTVAHLNTLKDRHPGDLWARMHISSLEYAAGDITRKGRKKDKARVSELLQGLSFSGDSDVEKDNEPEIQPAQKKLKVSCFPEKSWTKRDIKPNFPSWSALDSGLLNLKSEKLNPVELFELFFDDETFNLIVNETNNYASQKNVSLEVTVQEMRCVFGVLLLSGFMRHPRREMYWEVSDTDQNLVRDAIRRDRFELIFSNLHFADNGHLDQKDKFTKLRPLIKQMNKNFLLYAPLEEYYCFDKSMCECFDSDQFLNGKPIRIGYKIWCGTTTQGYLVWFEPYQEESTMKVDEDPDLGLGGNLVMNFADVLLERGQYPYHLCFDSFFTSVKLLSALKKKGVRATGTIRENRTEKCPLMNVEHMKKMKRGYFDFRIEENNEIILCRWYGDGIISLCSNAVGIEPVNEVSCCDADNEEIPQISQPSIVKVYDECKEGVAKMDQIISKYRVRIRSKKWYSILVSYMIDVAMNNAWQLHRACNPGASLDPLDFRRFVAHFYLEHNAHLSD
partner: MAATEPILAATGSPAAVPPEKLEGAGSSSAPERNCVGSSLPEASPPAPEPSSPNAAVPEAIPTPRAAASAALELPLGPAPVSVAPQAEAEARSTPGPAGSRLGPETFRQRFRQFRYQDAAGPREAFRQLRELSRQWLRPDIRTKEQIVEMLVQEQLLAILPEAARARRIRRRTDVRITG
B4: Myelin proteolipid protein (Homo sapiens), P60201-2 (parent)
chain: MGLLECCARCLVGAPFASLVATGLCFFGVALFCGCGHEALTGTEKLIETYFSKNYQDYEYLINVIHAFQYVIYGTASFFFLYGALLLAEGFYTTGAVRQIFGDYKTTICGKGLSATFVGITYALTVVWLLVFACSAVPVYIYFNTWTTCQSIAFPSKTSASIGSLCADARMYGVLPWNAFPGKVCGSNLLSICKTAEFQMTFHLFIAAFVGAAATLVSLLTFMIAATYNFAVLKLMGRGTKF
partner: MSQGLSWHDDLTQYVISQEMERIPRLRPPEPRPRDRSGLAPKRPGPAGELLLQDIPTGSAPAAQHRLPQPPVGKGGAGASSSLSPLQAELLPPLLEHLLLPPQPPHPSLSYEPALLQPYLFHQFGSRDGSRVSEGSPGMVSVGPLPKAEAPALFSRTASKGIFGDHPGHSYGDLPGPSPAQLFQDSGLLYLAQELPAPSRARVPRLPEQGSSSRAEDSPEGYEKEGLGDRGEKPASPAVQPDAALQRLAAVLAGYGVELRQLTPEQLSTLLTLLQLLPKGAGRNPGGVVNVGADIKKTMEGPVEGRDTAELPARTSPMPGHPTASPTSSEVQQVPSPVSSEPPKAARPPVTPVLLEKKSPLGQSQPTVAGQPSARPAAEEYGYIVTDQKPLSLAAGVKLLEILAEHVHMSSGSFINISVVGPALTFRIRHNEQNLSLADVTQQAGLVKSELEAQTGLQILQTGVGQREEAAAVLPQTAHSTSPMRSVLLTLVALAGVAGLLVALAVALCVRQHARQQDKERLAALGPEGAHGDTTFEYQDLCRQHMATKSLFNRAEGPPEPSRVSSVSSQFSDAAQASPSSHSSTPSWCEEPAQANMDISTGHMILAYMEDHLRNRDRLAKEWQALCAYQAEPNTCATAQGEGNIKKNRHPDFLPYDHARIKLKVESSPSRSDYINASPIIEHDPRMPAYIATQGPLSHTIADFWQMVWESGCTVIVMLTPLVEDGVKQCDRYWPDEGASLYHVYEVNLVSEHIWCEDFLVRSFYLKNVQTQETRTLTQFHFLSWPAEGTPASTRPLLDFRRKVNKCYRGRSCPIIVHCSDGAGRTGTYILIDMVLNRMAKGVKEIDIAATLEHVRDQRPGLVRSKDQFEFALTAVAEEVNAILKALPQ

Variants of: B1
Conditions: with pch2_human TRIP13, Q15645
For I268T, the “effect of a mutation on the interaction” value was “with no effect”.
With G33D the “effect of a mutation on the interaction” value was “with no effect”.
C190W was tested, and the “effect of a mutation on the interaction” value was “with no effect”.
E329K was tested, and the “effect of a mutation on the interaction” value was “disrupting interaction strength”.

Variants of: B2
Conditions: with trbp2_human TARBP2, Q15633
For P222L, the “effect of a mutation on the interaction” value was “with no effect”.

Variants of: B3
Conditions: with scnd1_human SCAND1, P57086
I678V was tested, and the “effect of a mutation on the interaction” value was “with no effect”.
In the case of H806D, the “effect of a mutation on the interaction” value is reported as “with no effect”.

Variants of: B4
Conditions: with PTPRN
For P15L, the “effect of a mutation on the interaction” value was “disrupting interaction strength”.
With W128L the “effect of a mutation on the interaction” value was “disrupting interaction strength”.
For A213E, the “effect of a mutation on the interaction” value was “disrupting interaction strength”.
In the case of L87P, the “effect of a mutation on the interaction” value is reported as “disrupting interaction strength”.
